Measurements taken from patent US12324447B2, “Animal feed compositions and uses thereof” (priority 2015, dated 2025).
Entries after “also recorded” stand apart in the source; their conditions may differ. Read-outs that look alike come from different tables or passages of the source. Marks after values point to notes of the source that are not given here.

How the values were obtained:
[1] = test system: Exiguobacterium undea (DSM14481); assay: Lysozyme activity turbidity assay (optical density drop at 540 nm); format: biochemical, Exiguobacterium undae
[2] = test system: Clostridium perfringens DSM756; format: cell-based; conditions: for Diameter of clearing zone (mm): lysozymes 100 μg/ml, Bacitracin zinc salt 50 μg/ml
[3] = Thermostability by Differential Scanning Calorimetry (DSC); format: physicochemical; conditions: 50 mM Na-acetate, DSC 200 K/hour
[4] = In vivo piglet trial (growth performance); parameters: species or system weaned piglets (Large-White x Redon); conditions: for ADFI (g/d), Mean / ADWG (g/d), Mean / FCR, Mean: SEQ ID NO: 257 50 mg/kg feed, VevoVital 5000 mg/kg feed; for ADFI, % relative NC / ADWG, % relative NC / FCR, % relative NC: relative to negative control
[5] = In vivo broiler trial (growth performance)
[6] = test system: Micrococcus lysodeikticus ATTC No. 4698; assay: Lysozyme activity turbidity assay (optical density drop at 540 nm)
[7] = test system: M. lysodeikticus substrate; assay: Temperature stability: residual activity by OD drop after heat treatment; conditions: for Residual activity (%): OD drop pH 6
[8] = Finisher (d 36-42), SEQ ID NO: 257 25 mg/kg feed, Avilamycin 10 mg/kg
[9] = Finisher (d 36-42), relative to unsupplemented control
[10] = Grower (d 22-36), SEQ ID NO: 257 25 mg/kg feed, Avilamycin 10 mg/kg
[11] = Grower (d 22-36), relative to unsupplemented control
[12] = Starter (d 1-22), SEQ ID NO: 257 25 mg/kg feed, Avilamycin 10 mg/kg
[13] = Starter (d 1-22), relative to unsupplemented control
[14] = Whole period (day 1 to day 42), SEQ ID NO: 257 25 mg/kg feed, Avilamycin 10 mg/kg
[15] = Whole period, relative to unsupplemented control

B1: SEQ ID NO: 257: mature GH24 lysozyme from Trichophaea saccata, comprising a GH24 domain and a lysozyme enhancing domain (LED) (protein, listed as Trichophaea saccata)
chain: YPVKTDLHCRSSPSTSASIVRTYSSGTEVQIQCQTTGTSVQGSNVWDKTQHGCYVADYYVKTGHSGIFTTKCGSSSGGGSCKPPPINAATVALIKEFEGFVPKPAPDPIGLPTVGYGHLCKTKGCKEVPYSFPLTQETATKLLQSDIKTFTSCVSNYVKDSVKLNDNQYGALASWAFNVGCGNVQTSSLIKRLNAGENPNTVAAQELPKWKYAGGKVMPGLVRRRNAEVALFKKPSSVQAHPPKC
modifications: mat_peptide (1)..(245)
With B1 the “Lysozyme activity against Exiguobacterium undea (in words)” value ([1]; OD drop assay) was “good activity”, the “Lysozyme Activity against Exiguobacterium undae as measured by Optical Density Drop” value ([1]; assay pH 6) was “++” and the “Diameter of clearing zone (mm)” value ([2]; Experiment 1, 1/2 MHB pH 6) was 11 mm. The “Diameter of clearing zone (mm)” value ([2]; Experiment 1, 1/10 MHB pH 7) was 9 mm, the “Diameter of clearing zone (mm)” value ([2]; Experiment 2, 1/10 MHB pH 7) was 8 mm and the “Antimicrobial activity against Clostridium perfringens (in words)” value ([2]; RDA, tested conditions (1/10 MHB pH 7 and 1/2 MHB pH 6)) was “significant activity; also recorded: showed antimicrobial activity”. For the same molecule, the “Denaturation Temperature Td (° C.)” value ([3]; pH 4.5) was 70.0 °C, the “Denaturation Temperature Td (° C.)” value ([3]; pH 5.5) was 70.8 °C and the “Denaturation Temperature Td (° C.)” value ([3]; pH 6.5) was 69.7 °C. For the same molecule, the “ADFI (g/d), Mean” value ([4]; day 0-14) was 333 g/day, the “ADWG (g/d), Mean” value ([4]; day 0-14) was 265 g/day and the “FCR, Mean” value ([4]; day 0-14) was 1.272^b. For the same molecule, the “ADFI, % relative NC” value ([4]; day 0-14) was 92.5%, the “ADWG, % relative NC” value ([4]; day 0-14) was 91.4% and the “FCR, % relative NC” value ([4]; day 0-14) was 102.6%. For the same molecule, the “ADFI (g/d), Mean” value ([4]; day 0-42) was 740^b g/d, the “ADWG (g/d), Mean” value ([4]; day 0-42) was 538 g/day and the “FCR, Mean” value ([4]; day 0-42) was 1.379^a. For the same molecule, the “ADFI, % relative NC” value ([4]; day 0-42) was 100.8%, the “ADWG, % relative NC” value ([4]; day 0-42) was 107.8% and the “FCR, % relative NC” value ([4]; day 0-42) was 92.9%. For the same molecule, the “ADFI (g/d), Mean” value ([4]; day 14-42) was 944^c g/d, the “ADWG (g/d), Mean” value ([4]; day 14-42) was 674 g/day and the “FCR, Mean” value ([4]; day 14-42) was 1.404^a. For the same molecule, the “ADFI, % relative NC” value ([4]; day 14-42) was 101.5%, the “ADWG, % relative NC” value ([4]; day 14-42) was 111.8% and the “FCR, % relative NC” value ([4]; day 14-42) was 90.9%. The “Improvement on FCR compared to the negative control” value ([4]; overall period (day 0 to day 42), lysozyme 50 mg/kg, VevoVital 5000 mg/kg) was 7.1%, the “Improvement of ADWG compared to NC” value ([4]; starter period (days 14-42)) was 11.8% and the “Improvement to FCR compared to NC” value ([4]; starter period, from day 15 to day 42, SEQ ID NO: 257 50 mg/kg, VevoVital (PC)) was 9.1%. The “Improvement of ADWG compared to NC” value ([4]; whole period (day 0 to day 42)) was 7.8%, the FCR [5, 8] was 1.919 and the “Feed intake (g/b)” value [5, 8] was 1524 g/b. For the same molecule, the “Weight gain (g/b)” value [5, 8] was 800 g/b, the “FCR, Relative to C (%)” value [5, 9] was 97.9% and the “Feed intake, Relative to C (%)” value [5, 9] was 102.5%. The “Weight gain, Relative to C (%)” value [5, 9] was 105.1%, the FCR [5, 10] was 1.714 and the “Feed intake (g/b)” value [5, 10] was 2336 g/b. The “Weight gain (g/b)” value [5, 10] was 1364 g/b, the “FCR, Relative to C (%)” value [5, 11] was 99.5% and the “Feed intake, Relative to C (%)” value [5, 11] was 102.2%. For the same molecule, the “Weight gain, Relative to C (%)” value [5, 11] was 102.7%, the FCR [5, 12] was 1.414 and the “Feed intake (g/b)” value [5, 12] was 1603 g/b. For the same molecule, the “Weight gain (g/b)” value [5, 12] was 1133 g/b, the “FCR, Relative to C (%)” value [5, 13] was 98.1% and the “Feed intake, Relative to C (%)” value [5, 13] was 101.6%. The “Weight gain, Relative to C (%)” value [5, 13] was 103.4%, the EPEF [5, 14] was 425 and the FCR [5, 14] was 1.657. For the same molecule, the “Feed intake (g/b)” value [5, 14] was 5450 g/b, the Motality [5, 14] was 10.0 and the “Weight gain (g/b)” value [5, 14] was 3290 g/b. The “EPEF, Relative to C (%)” value [5, 15] was 101.7%, the “FCR, Relative to C (%)” value [5, 15] was 98.6% and the “Feed intake, Relative to C (%)” value [5, 15] was 101.9%. For the same molecule, the “Weight gain, Relative to C (%)” value [5, 15] was 103.3%, the “EPEF improvement compared to NC diet” value ([5]; whole period, GH24 lysozyme 25 mg/kg) was 1.7% and the “FCR improvement compared to NC diet” value ([5]; whole period, GH24 lysozyme 25 mg/kg, Avilamycin 10 mg/kg) was 1.4%. The “Lysozyme activity against Micrococcus lysodeikticus (in words)” value ([6]; OD drop assay) was “good activity”, the “Lysozyme Activity against Micrococcus lysodeikticus as measured by Optical Density Drop” value ([6]; assay pH 6) was “++” and the “Time for which the lysozyme is stable” value ([7]; at temperatures as high as 99° C.) was “at least 90 seconds”. For the same molecule, the “Residual activity (%)” value ([7]; heat treatment 30 sec at 60 °C) was 93%, the “Residual activity (%)” value ([7]; heat treatment 30 sec at 65 °C) was 99% and the “Residual activity (%)” value ([7]; heat treatment 30 sec at 70 °C) was 94%. For the same molecule, the “Residual activity (%)” value ([7]; heat treatment 30 sec at 75 °C) was 101%, the “Residual activity (%)” value ([7]; heat treatment 30 sec at 80 °C) was 94% and the “Residual activity (%)” value ([7]; heat treatment 30 sec at 85 °C) was 98%. For the same molecule, the “Residual activity (%)” value ([7]; heat treatment 30 sec at 90 °C) was 94%, the “Residual activity (%)” value ([7]; heat treatment 30 sec at 95 °C) was 98% and the “Residual activity (%)” value ([7]; heat treatment 30 sec at 99 °C) was 93%. The “Residual activity (%)” value ([7]; heat treatment 60 sec at 60 °C) was 99%, the “Residual activity (%)” value ([7]; heat treatment 60 sec at 65 °C) was 97% and the “Residual activity (%)” value ([7]; heat treatment 60 sec at 70 °C) was 93%. The “Residual activity (%)” value ([7]; heat treatment 60 sec at 75 °C) was 96%, the “Residual activity (%)” value ([7]; heat treatment 60 sec at 80 °C) was 98% and the “Residual activity (%)” value ([7]; heat treatment 60 sec at 85 °C) was 94%. The “Residual activity (%)” value ([7]; heat treatment 60 sec at 90 °C) was 99%, the “Residual activity (%)” value ([7]; heat treatment 60 sec at 95 °C) was 94% and the “Residual activity (%)” value ([7]; heat treatment 60 sec at 99 °C) was 97%. For the same molecule, the “Residual activity (%)” value ([7]; heat treatment 90 sec at 60 °C) was 96%, the “Residual activity (%)” value ([7]; heat treatment 90 sec at 65 °C) was 99% and the “Residual activity (%)” value ([7]; heat treatment 90 sec at 70 °C) was 98%. The “Residual activity (%)” value ([7]; heat treatment 90 sec at 75 °C) was 98%, the “Residual activity (%)” value ([7]; heat treatment 90 sec at 80 °C) was 97% and the “Residual activity (%)” value ([7]; heat treatment 90 sec at 85 °C) was 100%. For the same molecule, the “Residual activity (%)” value ([7]; heat treatment 90 sec at 90 °C) was 97%, the “Residual activity (%)” value ([7]; heat treatment 90 sec at 95 °C) was 102% and the “Residual activity (%)” value ([7]; heat treatment 90 sec at 99 °C) was 89%.
